Measurements taken from patent publication US20030079244A1, “Agent for treatment of exocrine gland disorders and transgenic mouse useful for screening the same” (R-TECH UENO, LTD., priority 1997, published 2003).

How the values were obtained:
[1] = test system: salivary gland epithelial cells; test: Cytotoxicity test against salivary gland epithelial cells (51Cr release); type: cell-based; conditions: CD4-positive T-cell effector cells treated with mouse IL-10 (0.1 mg/ml) with or without anti-FASL antibody (10 μg/ml); effector:target 20-fold; 4 hours at 37° C.; 51Cr in supernatant
From the text: Cytotoxicity test against salivary gland epithelial cells
Spleen isolated from a B6 mouse was chopped into small pieces, the cells were collected with a syringe having 22-gage injection needle and the collected cells were passed through a meshed screen to obtain cell suspension. CD4-positive T-cells were isolated from the cell suspension by means of dynabeads to provide effector cells.
Salivary gland of the same mouse as above was immersed in DMEM medium containing 10% fetal calf serum supplemented with collagenase (750 units/ml), EDTA (0.76 mg/ml) and hyaluronidase type IV (500 units/ml) to isolate the salivary gland tissue, and the obtained cells were incubated in DMEM medium containing 10% fetal calf serum for 10 to 14 days in a CO2 incubator. The cultured cells were then analyzed with flow-cytometry and were confirmed that 85-95% of them were epithelial cells, and were used as target cells.
The target cells were labeled with 51Cr. Half of the effector cells were treated with mouse IL-10 (0.1 mg/ml) alone, whereas the other half were treated with mice IL-10 (0.1 mg/ml) and anti mice Fas ligand (FASL) neutralizing antibody (10 μg/ml) . […]
The amount of 51Cr in the supernatant of the respective culture was measured and the cytotoxic ratio was calculated by subtracting the 51Cr amount of the target cells cultured without effector cells.

[2] = test system: normal mouse spleen cells; test: Effect of IL-10 on the expression of Fas ligand (flow-cytometry); type: cell-based; conditions: treated in vitro, analyzed 48 hours after the treatment; versus non-stimulated cells
Procedure: In order to study the role of IL-10 in Fas-ligand expression, normal mouse spleen cells were isolated, treated with mouse recombinant IL-10 in vitro and then analyzed with flow-cytometry 48 hours after the treatment.

B1: IL-10: mouse interleukin-10 used to treat effector cells and spleen cells (protein, UniProt P18893 19-178, looked up)
Interleukin-10: SRGQYSREDNNCTHFPVGQSHMLLELRTAFSQVKTFFQTKDQLDNILLTDSLMQDFKGYLGCQALSEMIQFYLVEVMPQAEKHGPEIKEHLNSLGEKLKTLRMRLRRCHRFLPCENKSKAVEQVKSDFNKLQDQGVYKAMNEFDIFINCIEAYMMIKMKS
[1]
  cytotoxic ratio: 29.5%
[2]
  Fas ligand expression: Significantly higher amount of Fas ligand expression
